# Test results: IntAct's records for PubMed 22057290
# B1: Ubiquitin carboxyl-terminal hydrolase CYLD (Homo sapiens), Q9NQC7 (parent)
# chain: MSSGLWSQEKVTSPYWEERIFYLLLQECSVTDKQTQKLLKVPKGSIGQYIQDRSVGHSRIPSAKGKKNQIGLKILEQPHAVLFVDEKDVVEINEKFTELLLAITNCEERFSLFKNRNRLSKGLQIDVGCPVKVQLRSGEEKFPGVVRFRGPLLAERTVSGIFFGVELLEEGRGQGFTDGVYQGKQLFQCDEDCGVFVALDKLELIEDDDTALESDYAGPGDTMQVELPPLEINSRVSLKVGETIESGTVIFCDVLPGKESLGYFVGVDMDNPIGNWDGRFDGVQLCSFACVESTILLHINDIIPALSESVTQERRPPKLAFMSRGVGDKGSSSHNKPKATGSTSDPGNRNRSELFYTLNGSSVDSQPQSKSKNTWYIDEVAEDPAKSLTEISTDFDRSSPPLQPPPVNSLTTENRFHSLPFSLTKMPNTNGSIGHSPLSLSAQSVMEELNTAPVQESPPLAMPPGNSHGLEVGSLAEVKENPPFYGVIRWIGQPPGLNEVLAGLELEDECAGCTDGTFRGTRYFTCALKKALFVKLKSCRPDSRFASLQPVSNQIERCNSLAFGGYLSEVVEENTPPKMEKEGLEIMIGKKKGIQGHYNSCYLDSTLFCLFAFSSVLDTVLLRPKEKNDVEYYSETQELLRTEIVNPLRIYGYVCATKIMKLRKILEKVEAASGFTSEEKDPEEFLNILFHHILRVEPLLKIRSAGQKVQDCYFYQIFMEKNEKVGVPTIQQLLEWSFINSNLKFAEAPSCLIIQMPRFGKDFKLFKKIFPSLELNITDLLEDTPRQCRICGGLAMYECRECYDDPDISAGKIKQFCKTCNTQVHLHPKRLNHKYNPVSLPKDLPDWDWRHGCIPCQNMELFAVLCIETSHYVAFVKYGKDDSAWLFFDSMADRDGGQNGFNIPQVTPCPEVGEYLKMSLEDLHSLDSRRIQGCARRLLCDAYMCMYQSPTMSLYK
# Variants of: B1
# Conditions: with itch_human ITCH
row,effect of a mutation on the interaction,Variant
1,disrupting interaction,Y485A
